{"source": "patent US20140011978A1", "about": "(EPFL TTO, published 2014)", "key": {"PDGF-AB": {"molecular_target": "T1, PDGF-AB (UniProt P04085 87-211; P01127 82-190, limits assumed)", "T1 construct": "The name implies a heterodimer of A and B chains", "T1 sequence (P01127 82-190 limits assumed, chain 2 of 2, other chains not shown)": "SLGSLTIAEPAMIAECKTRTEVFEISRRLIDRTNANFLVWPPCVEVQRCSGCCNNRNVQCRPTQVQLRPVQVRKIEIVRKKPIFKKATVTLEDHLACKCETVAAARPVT", "assay": "ELISA, cytokine coated, Fg β15-66 in solution (methods as Example 3)", "protocol": "(§1) ELISA plates were coated with cytokines or BSA and further incubated with TNC III1-5 to analyze binding of TNC III1-5 to a wide variety of cytokines. […] A large amount of heparin (4 μM) impaired binding of TNC III1-5 to these cytokines. Results are depicted in FIG. 3. Method: 50 nM of cytokine was coated for (1 hr, 37° C.). After blocking with 2% BSA (1 hr, RT). 100 nM TNC III1-5 was applied in PBST (0.05% tween, 0.1% bovine serum albumin (BSA)) (1 hr, RT). TNC III1-5 was detected with horseradish peroxidase (HRP)-anti-HIS in PBST (1 hr, RT) and developed with 3,3′,5,5′-tetramethylbenzidine (TMB), a soluble colorimetric HRP […]. Addition of sulfuric acid stop solution changes the color to yellow, enabling accurate measurement of the intensity at 450 nm using a spectrophotometer or plate reader. […] Heparin (4 μM) was added to TNC III1-5 to test the effect of blocking the heparin binding site of TNC III1-5, which has been defined as domain TNC III5 (Weber, Zimmermann, et al., 1995).\n(§2) ELISA plates were coated with cytokines or BSA and further incubated with Fg β15-66 to analyze binding of […] to a wide variety of cytokines. […] Results are depicted in FIG. 4. Method: The methods were analogous to those used in Example 3."}, "FGF-5": {"molecular_target": "T2, FGF-5 (UniProt P12034 21-268, limits assumed)", "T2 sequence (looked up)": "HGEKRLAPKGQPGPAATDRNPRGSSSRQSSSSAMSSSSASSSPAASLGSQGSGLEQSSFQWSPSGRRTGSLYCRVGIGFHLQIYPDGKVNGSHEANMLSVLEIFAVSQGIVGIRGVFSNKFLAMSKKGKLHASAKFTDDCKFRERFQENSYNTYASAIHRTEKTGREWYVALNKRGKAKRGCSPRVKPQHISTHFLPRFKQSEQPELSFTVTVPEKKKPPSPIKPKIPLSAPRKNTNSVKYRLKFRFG", "assay": "ELISA, cytokine coated, Fg β15-66 in solution (methods as Example 3)", "protocol": "as §1, §2"}, "BMP-2/7": {"molecular_target": "T3, BMP-2/7 (UniProt P12643 283-396; P18075 293-431)", "T3 construct": "The name implies a BMP-2/BMP-7 heterodimer", "T3 sequence (P12643 283-396, chain 1 of 2)": "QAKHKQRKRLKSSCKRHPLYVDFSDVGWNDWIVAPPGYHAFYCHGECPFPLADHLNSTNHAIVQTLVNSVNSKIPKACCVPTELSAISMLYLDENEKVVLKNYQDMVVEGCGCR", "T3 sequence (P18075 293-431, chain 2 of 2)": "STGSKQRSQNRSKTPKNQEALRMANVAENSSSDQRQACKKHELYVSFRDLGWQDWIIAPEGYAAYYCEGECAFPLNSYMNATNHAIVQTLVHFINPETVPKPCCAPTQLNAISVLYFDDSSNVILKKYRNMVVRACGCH", "assay": "ELISA, cytokine coated, Fg β15-66 in solution (methods as Example 3)", "protocol": "as §1, §2"}, "TGF-β1": {"molecular_target": "TGF-β1 (UniProt P01137 279-390)", "sequence (P01137 279-390 limits assumed)": "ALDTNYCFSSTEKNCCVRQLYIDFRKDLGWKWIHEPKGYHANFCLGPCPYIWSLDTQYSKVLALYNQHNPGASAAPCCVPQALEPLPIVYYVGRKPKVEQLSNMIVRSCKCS", "assay": "SPR, Fg β15-66 on the chip, cytokine injected (methods as Example 5), Langmuir fit", "protocol": "(§3) Surface plasmon resonance (SPR) was done to quantify the affinity of specific cytokines to TNC III1-5. […] Method: Surface plasmon resonance chips were functionalized with TNC III1-5 or BSA and cytokines were injected over the chips at different concentrations. The chips contained gold with free carboxyl groups that were activated to bind TNC III1-5 in one channel and BSA as a reference protein in another channel. The specific response of a cytokine to TNC III1-5 (in RU) was obtained relative to the response to BSA. Results are depicted in FIG. 5.\n(§4) Surface plasmon resonance (SPR) was done to quantify the affinity of specific cytokines to Fg β15-66. […] Method: The methods used above were analogous to those used in Example 5. Fits of the experimental data were made with Langmuir binding kinetics. Results are depicted in FIG. 6."}, "PlGF-2": {"molecular_target": "T4, PlGF-2 (UniProt P49763-3 19-170)", "T4 sequence (looked up)": "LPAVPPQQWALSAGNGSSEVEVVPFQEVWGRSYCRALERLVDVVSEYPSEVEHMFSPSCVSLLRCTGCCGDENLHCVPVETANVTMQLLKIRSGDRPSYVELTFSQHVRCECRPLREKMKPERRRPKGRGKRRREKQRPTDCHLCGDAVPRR", "assay": "SPR, Fg β15-66 on the chip, cytokine injected (methods as Example 5), Langmuir fit", "protocol": "as §3, §4"}, "IGF-BP5": {"molecular_target": "IGF-BP5 (UniProt P24593 21-272)", "sequence (P24593 21-272 limits assumed)": "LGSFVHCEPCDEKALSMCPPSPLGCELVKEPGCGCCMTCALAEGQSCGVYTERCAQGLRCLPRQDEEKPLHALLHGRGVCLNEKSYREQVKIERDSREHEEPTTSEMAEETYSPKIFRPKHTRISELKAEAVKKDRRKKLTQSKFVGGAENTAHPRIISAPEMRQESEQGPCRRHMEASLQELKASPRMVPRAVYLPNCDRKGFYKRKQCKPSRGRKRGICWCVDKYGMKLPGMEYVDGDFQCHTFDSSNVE", "assay": "SPR, Fg β15-66 on the chip, cytokine injected (methods as Example 5), Langmuir fit", "protocol": "as §3, §4"}, "FGF-2": {"molecular_target": "FGF-2 (UniProt P09038 135-288, limits assumed)", "sequence (P09038 135-288 limits assumed)": "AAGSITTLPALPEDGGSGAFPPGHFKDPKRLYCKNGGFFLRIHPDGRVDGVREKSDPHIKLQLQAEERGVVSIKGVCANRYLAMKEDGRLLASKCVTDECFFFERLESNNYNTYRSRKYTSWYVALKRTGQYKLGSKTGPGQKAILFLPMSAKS", "assay": "SPR, Fg β15-66 on the chip, cytokine injected (methods as Example 5), Langmuir fit", "protocol": "as §3, §4"}, "NT-3": {"molecular_target": "T5, NT-3 (UniProt P20783 139-257)", "T5 sequence (looked up)": "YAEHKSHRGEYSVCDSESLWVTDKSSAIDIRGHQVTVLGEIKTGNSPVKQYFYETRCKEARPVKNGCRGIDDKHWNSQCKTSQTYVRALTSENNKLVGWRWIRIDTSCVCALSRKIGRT", "assay": "ELISA: growth factor coated, Fg fragment in solution, A450 (methods analogous to Example 3)", "protocol": "as §1, §2"}, "PDGF-DD": {"molecular_target": "PDGF-DD (UniProt Q9GZP0 250-370)", "sequence (Q9GZP0 250-370)": "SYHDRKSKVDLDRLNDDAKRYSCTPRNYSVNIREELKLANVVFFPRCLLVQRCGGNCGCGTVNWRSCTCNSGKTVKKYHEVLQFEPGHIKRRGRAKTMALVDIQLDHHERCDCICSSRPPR", "assay": "ELISA: growth factor coated, Fg fragment in solution, A450 (methods analogous to Example 3)", "protocol": "as §1, §2"}, "VEGF-A165": {"molecular_target": "VEGF-A165 (UniProt P15692-4 27-191)", "sequence (P15692 other isoform, or with tags, fused parts or gaps limits assumed)": "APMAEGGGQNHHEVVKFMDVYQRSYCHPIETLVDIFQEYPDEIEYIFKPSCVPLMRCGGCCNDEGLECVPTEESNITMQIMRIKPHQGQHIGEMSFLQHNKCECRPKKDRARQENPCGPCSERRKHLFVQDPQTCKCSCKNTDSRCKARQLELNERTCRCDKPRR", "assay": "ELISA: growth factor coated, Fg fragment in solution, A450 (methods analogous to Example 3)", "protocol": "as §1, §2"}, "IGF-BP3": {"molecular_target": "IGF-BP3 (UniProt P17936 28-291)", "sequence (P17936 28-291 limits assumed)": "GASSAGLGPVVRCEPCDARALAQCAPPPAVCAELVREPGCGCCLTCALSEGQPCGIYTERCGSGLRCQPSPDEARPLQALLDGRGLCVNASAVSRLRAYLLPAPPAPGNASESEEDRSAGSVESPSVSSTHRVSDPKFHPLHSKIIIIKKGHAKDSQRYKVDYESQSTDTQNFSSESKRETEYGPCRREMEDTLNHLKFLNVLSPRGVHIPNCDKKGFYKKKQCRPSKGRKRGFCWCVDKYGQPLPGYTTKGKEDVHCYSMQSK", "assay": "ELISA: growth factor coated, Fg fragment in solution, A450 (methods analogous to Example 3)", "protocol": "as §1, §2"}, "FGF-10": {"molecular_target": "T6, FGF-10 (UniProt O15520 38-208)", "T6 sequence (looked up)": "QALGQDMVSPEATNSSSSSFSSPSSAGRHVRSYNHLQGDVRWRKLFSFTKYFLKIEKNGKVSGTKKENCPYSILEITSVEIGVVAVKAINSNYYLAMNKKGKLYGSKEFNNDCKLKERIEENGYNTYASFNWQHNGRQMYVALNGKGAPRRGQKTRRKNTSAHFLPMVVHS", "assay": "ELISA: growth factor coated, Fg fragment in solution, A450 (methods analogous to Example 3)", "protocol": "as §1, §2"}, "BSA": {"molecular_target": "T7, BSA (bovine, UniProt P02769)", "T7 construct": "negative control; also called bovine serum albumin", "T7 sequence (P02769 25-607 limits assumed)": "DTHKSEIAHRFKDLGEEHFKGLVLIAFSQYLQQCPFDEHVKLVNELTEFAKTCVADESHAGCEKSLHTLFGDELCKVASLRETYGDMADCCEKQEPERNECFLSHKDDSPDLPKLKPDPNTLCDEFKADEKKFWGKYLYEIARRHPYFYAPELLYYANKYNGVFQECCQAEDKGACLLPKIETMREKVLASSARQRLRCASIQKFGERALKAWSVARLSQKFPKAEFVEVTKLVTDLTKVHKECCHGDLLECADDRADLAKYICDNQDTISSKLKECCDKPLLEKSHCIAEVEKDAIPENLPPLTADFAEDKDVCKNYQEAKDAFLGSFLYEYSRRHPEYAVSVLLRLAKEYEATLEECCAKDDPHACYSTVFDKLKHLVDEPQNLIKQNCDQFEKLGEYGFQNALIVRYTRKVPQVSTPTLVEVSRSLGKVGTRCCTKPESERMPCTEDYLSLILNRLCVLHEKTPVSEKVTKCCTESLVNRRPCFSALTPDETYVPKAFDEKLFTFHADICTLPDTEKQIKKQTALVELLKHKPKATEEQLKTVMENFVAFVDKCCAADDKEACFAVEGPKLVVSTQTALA", "assay": "ELISA: BSA coated as control, Fg fragment in solution, A450 (methods analogous to Example 3)", "protocol": "as §1, §2"}}, "data": [{"binder": "Fg β15-66 (other, Made as a GST fusion; GST was cleaved off; also called TG-Fg β15-66; fibrinogen β15-66 domain) GSNQEQVSPLGHRPLDKKREEAPSLRPAPPPISGGGYRARPAKAAATQKKVERKAPDAGGCGHHHHHH", "values": [{"measurement": "binding result", "setting": "PDGF-AB", "value": "binds"}, {"measurement": "binding result", "setting": "FGF-5", "value": "binds"}, {"measurement": "binding result", "setting": "BMP-2/7", "value": "binds"}, {"measurement": "Kd", "setting": "TGF-β1", "value": 56.5, "unit": "nM"}, {"measurement": "Kd", "setting": "PlGF-2", "value": 1.9, "unit": "nM"}, {"measurement": "Kd", "setting": "IGF-BP5", "value": 19.6, "unit": "nM"}, {"measurement": "Kd", "setting": "FGF-2", "value": 53, "unit": "nM"}, {"measurement": "binding result", "setting": "NT-3", "value": "binds"}, {"measurement": "binding result", "setting": "PDGF-DD", "value": "binds"}, {"measurement": "binding result", "setting": "VEGF-A165", "value": "binds"}, {"measurement": "binding result", "setting": "IGF-BP3", "value": "binds"}, {"measurement": "binding result", "setting": "FGF-10", "value": "binds"}, {"measurement": "binding result", "setting": "BSA", "value": "no binding"}]}]}
